The numbers were not newly measured in article PMC7911750, which cites them from elsewhere.

In this data set the target is NKp30-Ig ECD (Homo sapiens) (UniProt O14931).
Sequence of UniProt O14931 (O14931 19-135): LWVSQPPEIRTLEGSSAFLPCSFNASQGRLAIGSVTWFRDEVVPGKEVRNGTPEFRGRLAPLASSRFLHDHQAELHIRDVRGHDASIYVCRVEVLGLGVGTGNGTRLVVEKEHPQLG

What is called Kd is the concentration at which binding is half-saturated. Turning to pp65 (from UniProt P06725), the Kd is 10 nM.
